Assay results from paper PMC3319311 (Nature, 2012).
Values belong to the binder of their own block, whether it stands above or below them.

Key:
[1] = target: T1, human OTUB1 (OTU domain-containing ubiquitin aldehyde-binding protein 1) (human, UniProt Q96FW1 1-271); assay: fluorescence polarisation
hOTUB1 F193W = hOTUB1 F193W (human, UniProt Q96FW1 1-271, F193W); assay: fluorescence polarisation
hOTUB1 F193R = hOTUB1 F193R (human, UniProt Q96FW1 1-271, F193R); assay: fluorescence polarisation
hOTUB1 H217W = hOTUB1 H217W (human, UniProt Q96FW1 1-271, H217W); assay: fluorescence polarisation
[2] = target: T2, Caenorhabditis elegans OTUB1 (Caenorhabditis elegans, UniProt Q9XVR6); assay: fluorescence polarisation
T2 sequence: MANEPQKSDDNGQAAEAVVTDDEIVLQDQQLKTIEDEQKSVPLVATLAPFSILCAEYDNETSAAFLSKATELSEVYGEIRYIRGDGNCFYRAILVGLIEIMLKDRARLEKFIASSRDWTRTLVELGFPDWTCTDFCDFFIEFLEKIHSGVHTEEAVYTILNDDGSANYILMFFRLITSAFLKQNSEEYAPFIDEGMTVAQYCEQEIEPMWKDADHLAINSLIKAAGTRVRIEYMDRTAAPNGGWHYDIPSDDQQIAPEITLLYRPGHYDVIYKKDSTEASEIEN

His6-tagged human OTUB1 = His6-tagged human OTUB1 (human, UniProt Q96FW1 1-271); assay: pull-down
hOTUB1Δ15 = hOTUB1Δ15 (human, UniProt Q96FW1 16-271); assay: pull-down
[3] = target: T1, human OTUB1 (OTU domain-containing …); assay: SEC

T1 sequence (Q96FW1 whole entry, the tested form may be a part): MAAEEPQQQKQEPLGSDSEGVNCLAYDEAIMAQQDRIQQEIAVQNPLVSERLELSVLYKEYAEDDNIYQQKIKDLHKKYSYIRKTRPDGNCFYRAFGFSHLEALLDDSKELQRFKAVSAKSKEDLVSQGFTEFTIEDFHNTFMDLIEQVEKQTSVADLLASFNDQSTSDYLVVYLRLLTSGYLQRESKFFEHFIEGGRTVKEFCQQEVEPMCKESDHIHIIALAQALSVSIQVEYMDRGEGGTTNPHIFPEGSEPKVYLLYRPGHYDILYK
Sequence of His6-tagged human OTUB1 (Q96FW1 whole entry): as the sequence (Q96FW1 whole entry, the tested form may be a part) above
Sequence of hOTUB1 F193W (Q96FW1 whole entry F193W): as the sequence (Q96FW1 whole entry, the tested form may be a part) above, with F193W counted along it
Sequence of hOTUB1 F193R (Q96FW1 whole entry F193R): as the sequence (Q96FW1 whole entry, the tested form may be a part) above, with F193R counted along it
Sequence of hOTUB1Δ15 (Q96FW1 16-271, stated change not applied): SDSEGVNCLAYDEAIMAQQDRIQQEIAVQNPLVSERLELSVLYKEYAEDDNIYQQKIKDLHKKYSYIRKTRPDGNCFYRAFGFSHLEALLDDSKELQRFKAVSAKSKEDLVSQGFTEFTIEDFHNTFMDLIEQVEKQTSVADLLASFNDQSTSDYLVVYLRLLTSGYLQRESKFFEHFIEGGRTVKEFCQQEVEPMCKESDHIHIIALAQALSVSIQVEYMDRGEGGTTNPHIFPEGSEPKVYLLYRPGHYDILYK
Sequence of hOTUB1 H217W (Q96FW1 whole entry H217W): as the sequence (Q96FW1 whole entry, the tested form may be a part) above, with H217W counted along it

Kd [1]: 7.04 µM | binding result (hOTUB1 F193W): binds | binding result (hOTUB1 F193R): binds | binding result (hOTUB1 H217W): binds | Kd [2]: 58.5 µM
B1: fluorescein-labeled human UBC13 (enzyme)
chain: MAGLPRRIIKETQRLLAEPVPGIKAEPDESNARYFHVVIAGPQDSPFEGGTFKLELFLPEEYPMAAPKVRFMTKIYHPNVDKLGRICLDILKDKWSPALQIRTVLLSIQALLSAPNPDDPLANDVAEQWKTNEAQAIETARAWTRLYAMNNI
modifications: labeled with fluorescein-5-maleimide

binding result (His6-tagged human OTUB1): binds | binding result (hOTUB1Δ15): binds
B2: UBC13^C87S~Ub oxyester (complex)
chain 1: MAGLPRRIIKETQRLLAEPVPGIKAEPDESNARYFHVVIAGPQDSPFEGGTFKLELFLPEEYPMAAPKVRFMTKIYHPNVDKLGRISLDILKDKWSPALQIRTVLLSIQALLSAPNPDDPLANDVAEQWKTNEAQAIETARAWTRLYAMNNI
chain 2: […]

binding result [3]: binds
B3: human UBC13 (UBE2N) (enzyme)
chain: MAGLPRRIIKETQRLLAEPVPGIKAEPDESNARYFHVVIAGPQDSPFEGGTFKLELFLPEEYPMAAPKVRFMTKIYHPNVDKLGRICLDILKDKWSPALQIRTVLLSIQALLSAPNPDDPLANDVAEQWKTNEAQAIETARAWTRLYAMNNI
